For test [1], the target named is T1, PSD-95 61-724 6xHis pSer73 (human, UniProt P78352 61-724, phosphoserine at 73). Kind of test: co-sedimentation.
In test [2] the target is T2, PSD-95 61-724 6xHis pSer142 (human, UniProt P78352 61-724, phosphoserine at 142). Put plainly: co-sedimentation.
In test [3] the target is T3, PSD-95 61-724 6xHis (human, UniProt P78352 61-724). Put plainly: co-sedimentation.
Test [4] concerns the target T2, PSD-95 61-724 6xHis pSer142. Put plainly: fluorescence polarisation. In general terms: In fluorescence polarisation assays a small probe gives low polarisation when free and higher when bound to something large.
Test [5] has as its target T3, PSD-95 61-724 6xHis. Put plainly: fluorescence polarisation.
For test [6], the target named is T1, PSD-95 61-724 6xHis pSer73. Put plainly: fluorescence polarisation.

Ends that are not written are not given here.

B1: GluN2B cytoplasmic tail (aa 1170-1482) (domain or fragment)
chain: GGPCTNRSHLKHGTGEKHGVVGGVPAPWEKNLTNVDWEDRSGGNFCRSCPSKLHNYSSTVAGQNSGRQACIRCEACKKAGNLYDISEDNSLQELDQPAAPVAVTSNASSTKYPQSPTNSKAQKKNRNKLRRQHSYDTFVDLQKEEAALAPRSVSLKDKGRFMDGSPYAHMFEMPAGESSFANKSSVPTAGHHHNNPGSGYMLSKSLYPDRVTQNPFIPTFGDDQCLLHGSKSYFFRQPTVAGASKTRPDFRALVTNKPVVVTLHGAVPGRFQKDICIGNQSNPCVPNNKNPRAFNGSSNGHVYEKLSSIESDV
As for B1, the binding result (in test [1]; in test [2]; with PSD-95 61-724 6xHis [3]) was “binds” each time. {TAMRA}-NNGSNAKAVETDV [Peptide ligand: Kv1.4 (TAMRA-NNG-SNAKAVETDV)]: the binding result (in test [4]; with PSD-95 61-724 6xHis [5]) was “binds” in each case. For the molecule {TAMRA}-NNGKKMPSIESDV [Peptide ligand: GluN2A (TAMRA-NNG-KKMPSIESDV)], the binding result (in test [6]; with PSD-95 61-724 6xHis [5]) was “binds” each time.

Usually Kd stands for the constant that tells how readily two partners part at equilibrium. Molecule {TAMRA}-NNGNTANRRTTPV [Peptide ligand: Stargazin (TAMRA-NNG-NTANRRTTPV)] yielded a Kd in the test with PSD-95 61-724 6xHis [5] of 2700 nM.

For {TAMRA}-NNGPAGKHMVTEV [Peptide ligand: Kv1.7 (TAMRA-NNG-PAGKHMVTEV)], the binding result (in test [4]; in the test with PSD-95 61-724 6xHis [5]) was “binds” each time. {TAMRA}-NNGYEKLSSIESDV [Peptide ligand: GluN2B (TAMRA-NNG-YEKLSSIESDV)]: binding in the test with PSD-95 61-724 6xHis [5] was put at a Kd of 1200 nM.
